B1: A-type potassium channel modulatory protein KCNIP1 (Homo sapiens), Q9NZI2 (parent)
chain: MGAVMGTFSSLQTKQRRPSKDIAWWYYQYQRDKIEDELEMTMVCHRPEGLEQLEAQTNFTKRELQVLYRGFKNECPSGVVNEDTFKQIYAQFFPHGDASTYAHYLFNAFDTTQTGSVKFEDFVTALSILLRGTVHEKLRWTFNLYDINKDGYINKEEMMDIVKAIYDMMGKYTYPVLKEDTPRQHVDVFFQKMDKNKDGIVTLDEFLESCQEDDNIMRSLQLFQNVM
partner: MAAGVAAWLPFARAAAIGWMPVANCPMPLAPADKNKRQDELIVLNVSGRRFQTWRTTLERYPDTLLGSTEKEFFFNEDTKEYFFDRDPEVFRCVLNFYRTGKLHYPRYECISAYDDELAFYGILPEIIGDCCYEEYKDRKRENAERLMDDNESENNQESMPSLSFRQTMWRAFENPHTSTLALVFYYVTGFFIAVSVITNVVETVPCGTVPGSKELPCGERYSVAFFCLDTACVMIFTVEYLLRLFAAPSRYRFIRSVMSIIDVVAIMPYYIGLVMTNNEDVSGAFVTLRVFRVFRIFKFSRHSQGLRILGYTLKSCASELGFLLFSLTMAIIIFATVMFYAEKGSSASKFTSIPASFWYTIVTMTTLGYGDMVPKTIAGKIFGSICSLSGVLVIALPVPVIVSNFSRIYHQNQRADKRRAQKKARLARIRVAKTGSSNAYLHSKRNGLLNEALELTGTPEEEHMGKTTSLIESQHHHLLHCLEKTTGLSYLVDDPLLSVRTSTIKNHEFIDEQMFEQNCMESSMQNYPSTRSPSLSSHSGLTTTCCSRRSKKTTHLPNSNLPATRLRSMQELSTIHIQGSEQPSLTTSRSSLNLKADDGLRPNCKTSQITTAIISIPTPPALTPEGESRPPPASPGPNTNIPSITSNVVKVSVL

Variants of: B1
Settings: with kcnd3_rat Kcnd3, Q62897

effect of a mutation on the interaction | Variant
decreasing interaction strength | MGAVMGTFSSLQTKQRRPSKDIAWWYYQYQRDKIEDELEMTMVCHRPEGLEQLEAQTNFTKRELQVLYRGFKNECPSGVVNEDTFKQIYAQFFPHGDASTYAHYLFNAFDTTQTGSVKFEDFVTALSILLRGTVHEKLRWTFNLYAINKDGYINKEEMMDIVKAIYDMMGKYTYPVLKEDTPRQHVDVFFQKMAKNKDGIVTLDEFLESCQEDDNIMRSLQLFQNVM [D146A;D194A]
